Source: the DeepSol protein solubility set

Assay: soluble on expression in E. coli; label from the status in PepcDB or PDB records

Sequence | soluble on expression in E. coli
MSLSITRKDFDHINLEYSGLEKVNKAVAAGNYDDAAKALLAYYREKSKAREPDFSNAEKPADIRQPIDKVTREMADKALVHQFQPHKGYGYFDYGKDINWQMWPVKDNEVRWQLHRVKWWQAMALVYHATGDEKYAREWVYQYSDWARKNPLGLSQDNDKFVWRPLEVSDRVQSLPPTFSLFVNSPAFTPAFLMEFLNSYHQQADYLSTHYAEQGNHRLFEAQRNLFAGVSFPEFKDSPRWRQTGISVLNTEIKKQVYADGMQFELSPIYHVAAIDIFLKAYGSAKRVNLEKEFPQSYVQTVENMIMALISISLPDYNTPMFGDSWITDKNFRMAQFASWARVFPANQAIKYFATDGKQGKAPNFLSKALSNAGFYTFRSGWDKNATVMVLKASPPGEFHAQPDNGTFELFIKGRNFTPDAGVFVYSGDEAIMKLRNWYRQTRIHSTLTLDNQNMVITKARQNKWETGNNLDVLTYTNPSYPNLDHQRSVLFINKKYFLVIDRAIGEATGNLGVHWQLKEDSNPVFDKTKNRVYTTYRDGNNLMIQSLNADRTSLNEEEGKVSYVYNKELKRPAFVFEKPKKNAGTQNFVSIVYPYDGQKAPEISIRENKGNDFEKGKLNLTLTINGKQQLVLVPEGHHHHHH | soluble
MSLSKNWLFLGKGFRWRPSHTQKLHQIKQVKNEKFMQRSYCYQLTRRFCQSHEHTKLAKWLNINSKLNPFRPDPPVGGSPFLHGVGDEDKPVYIPQDVRVGHTFVVGTTRVGKTRLASILINQDIRNGDAVIVVDPKGDQDLVRDMVAACKVSGRTEDFKIVHLGFPEQSAQYNPLKKFDQISEVATRITDAISAEGEGKQFAAFAWKYVNIVAICLEEMNQPITYQTIAFYISRLEQLLMSYADNILPNHYLNYHQEIDDIIEEHDSKIGKNNKTKSPMERHQAVIQYIKDHINKTIKSNNAEALHDQILIDLYDAAIMDKHYYDKITASVGPVLSEINKSNASKILSSKAQPGDIELMDVIKNKKVLYIGLDSLTNPNIAQAVGKAFLSDLVSTAGKIYKEPNARYTLNLHCDELSEIIQDSFVKILNKAGGAGFQVTAYAQTIQDMEVALGSRAKAEVSEGNFNTLIMLRVKNEETANLLVKVLPQVGVVGHTQVSMVNDTPHGDDGVYFNTTNEDRVQTSNAPMIGVDDIISLPKGQAFVLASGGEIWKIRIPLPMNSNEGHHHHHH | not soluble
MSLSLFQAILTSMEPREGGEKVFPSDLMIARKTKTGIIYPVFLSDDNIDYARAVISVFTLNTGKKKEVIENNLKEIELKFQNAKIIRALSLIMMRKSIFVPPVNIDAQALREYIFSMARIPPINSNEREMILKSAAESFNIDYIDIENAIYADKDSESILERPYNTDEGKLIREYNLEQLETVLLKCTELNISNASDWHFVITMIRRLGLLYEIKNDGDKIISVNITGPMALFENTERYGSKFSMLIRSIYKMNEWSLTASIKVKDFSGDKNIYTLKLSDSAKFFLPPGTIKPEHLPEHVSRGYPIIINNKFYFPDYIIDLDERIYVSINSDEKPDNLNWINVYILSDRDKKKPGSIAFYNDMDWDELFNLISKKRNLSSEIDNYSIDEIKKKLDQIYPDSQGMIDYLESQGLIPLRVLPELGYKIKWKNLDIIIEKAEGHHHHHH | not soluble
MSLSNFKSISLTYRKAPLEIRERVALNEAECKSLMLRIKDFTDTAELLILSTCNRTEIYYTSNEDYSNDIIKLLGVEKNITGLIQQKEYFEIYNEQADAVLHLFEVGIGLDSQVVGDMQIVNQVKYAYQWSADLNLAGPFLHRLMHTIFFTNKRVVQETAFRDGAASVSYATVELSEELLSATPNANILIVGLGEIGADVCRNFKANTSFKNITLTNRSPLKSEALAAECGIEHVPFETLWEAVAKADLVISSVAKEEPLFTKEEIQKLSILSHKYFIDLSVPRSVDARAEELPGIIVYDIDHIQNRSNEALENRLNAIPHVRKIILDSIVEFNEWSKEMEVSPTINKLKNALEQIRKEELSRFVKQLSDEEAKKVDEITKSIMQKIIKLPVLQLKAACKRGEAETLIDVLNDLFNLDKQPEQIREGHHHHHH | soluble
MSLSPEDAIVIILSDDDTIRSALDANIHLQGRRSHLCKSRTDFLISPEADLVGCVVLDARLPDLTASDLTHLICAHAIRCPVIVLTGHGGQAMTVNATKFHVSFIPQPFDLNALAEKIHAAIRTTMEIGRLEGNYRTLTPREREVMKFVAEGLLNKQVAFKLNISEITVKAHRGQVMRKMNARTLPHLVNMAAKLDIGVAFLHEGHHHHHH | soluble
MSLSRCLPLGQNARVIIIPARLAHAASTQAAAATDDAPNFFQKLAHRFQGVPLKGEAHAPKSMFEDCNKEWSAPEPLPAIPKDFKEHPDRDLVNYPYPARPMYPPKSRLLMMPDSWFTPFQKVTGVSGPYLFFGGLFAFLVNKELWVFEEQGHMTVGWILFYLLVTRTAGYKIDQGLYNGYQERVNFFKGLIQEDLKEAVEFKKTSAKQTESLNSIKESYPTALKESMALQLEATYRKNVQSVATELKRRIDYLKETEESKARVEREQLLKLINSEVDKEFSDRSFKDKYLQNAIQQLKGLNVQL | not soluble
MSLSRRPAYARLLDRAVRILAVRDHSEQELRRKLAAPIMGKNGPEEIDATAEDYERVIAWCHEHGYLDDSRFVARFIASRSRKGYGPARIRQELNQKGISREATEKAMRECDIDWCALARDQATRKYGEPLPTVFSEKVKIQRFLLYRGYLMEDIQDIWRNFADEGHHHHHH | soluble
MSLSRSFDTAPLGGRLNLTVADAEVFRNFLPVGQTVKGSLNAAVTLGGSIADPHLGGSINGDKLYYRNQTQGIILDNGSLRSHIAGRKWVIDSLKFRHEGTAELSGTVGMENSGPDVDIGAVFDKYRILSRPNRRLTVSGNTRLRYSPQKGISVTGMIKTDQGLFGSQKSSMPSVGDDVVVLGEVKKEAAAPLPVNMNLTLDLNDGIRFAGYGADVTIGGKLTLTAQSGGSVRGVGTVRVIKGRYKAYGQDLDITKGTVSFVGPLNDPNLNIRAERRLSPVGAGVEILGSLNSPRITLTANEPMSEKDKLSWLILNRAGSGSSGDNAALSAAAGALLAGQINDRIGLVDDLGFTSKRSRNAQTGELNPAEQVLTVGKQLTGKLYIGYEYSISSAEQSVKLIYRLTRAIQAVARIGSRSSGGELTYTIRFDRFSGSDEGHHHHHH | not soluble
MSLSRVEETGLGFVGTFESGFTQGTVGVGVDAIGMLGLKLDSGKGRAGTGLFPTGSDGRSQDDYSKGGGAVKFRISDTVLKVGDQFTALPVFATDDSRLLPEIAQGTLITSNEIEGLTLHAGHFTSLTAQEQTNRDSFGLKEANVVGGTYAFTDNLSTSLYYSKVEDYWRKYYANVNWALPISDNQGLVFDFNIYDTKSEGSAEYRAFDGDKLDNRAFSLSGAYNIGAHTFTLAYQKVTGDGDYGYGIDGGGTIFLANSVARSDFNAEDEKSWQARYDLNFAEYGIPGLTFMTRYVRGSDANVAGTSNGKEWERDVDIKYVLQEGPAKDLSFRVRQATYRSSDGVYYDSPSIDELRLIVEYPLNILEGHHHHHH | soluble
MSLSRVFVIGAAGKVGQRLIKKLGDGGHEVIALHRKEEQSVLIKAAGALPLLANLVEMDAAALSSAMAGSDVVVFTAGAGGAGIELTNAIDGEGLKTSVAAAELAGVRRFLLVSAFPEAARGTDTSAGFENYMRVKKHADVCLASSELDWVILRPGTLVDSAGSGQVRAGLAIPYGDIPRDDVAAFLAALVDQPEISRQIIELTEGTTPVELAIKALGTREGHHHHHH | soluble
MSLSSERLIYLPLGGAGEIGMNAYVYGYGKPGKERLIVVDLGVAFPDMDTSPGVDLIIPDIAWLEERRDQIEAIFITHAHEDHIGAVAHTYDRLRAPIYTRKFTANIAKRKMDEYGHPDDAVTTVAPWPQQTTVGPFKVGFLPMSHSIPESSSLVIDVAGDRLIHSGDFKIDMTPGVGEPYDPELWADVSKDGVKALICDSTNVFSQHAGRSEATVGPEIEKLLGTAQGMVVATTFASNVARVKTLADAGERAGRSVVLLGRAMKRMVEASLETGVMKDFPPVVSPEEARGIPRENLMLLVTGSQGERRAASAQLARGKYMGLEMKEGDMFLFSSKTIPGNERGVIKVINAFSEMGVDIVDDSSGLYHVSGHANRPDLETLHDVVKPQILIPMHGEHRHLREHTKIANAKGMKGVLAVNGMMIDLSGNEPKVVEYVDSGRTYLDGSTQIGAMDGVVRDRIRMALNGHVTVTVILDENDEALGDPWVDAMGLPEQGRSKTSLVDVLEADLAQFLGRANAKTLRDDDKLHDGLKRTVRQSANDEIGKKPEVTIVVSRLSEGHHHHHH | soluble
MSLSSFEGKVAVITGAGSGIGRALALNLSEKRAKLALSDVDTDGLAKTVRLAQALGAQVKSDRLDVAEREAVLAHADAVVAHFGTVHQVYNNAGIAYNGNVDKSEFKDIERIIDVDFWGVVNGTKAFLPHVIASGDGHIVNISSLFGLIAVPGQSAYNAAKFAVRGFTEALRQEMLVARHPVKVTCVHPGGIKTAVARNATVADGEDQQTFAEFFDRRLALHSPEMAAKTIVNGVAKGQARVVVGLEAKAVDVLARIMGSSYQREGHHHHHH | not soluble
MSLSSFPDVPGWVKPSVDYLINKNVLSGMPDGTFSPNLEIDRGSSAKVMAKILELPIDQSAKPSFDDSKSHWAAPYIAAIEKAGVIKGDGKGNFNPTGKLTRGAMASMLVHAYKLQEKVTGNPPTVFNDLKDHWSEKYVNILVELGISNGYGDDNWKPDQTITRAETVSLVARTDEGHHHHHH | not soluble
MSLSTIEDVAKLAGLSRTTVSRVINNHPYVSDEKKKRVQLAMKHLGFVPNSAARRLRKQKTETIAVLVPRITNPFFSRFIEAIEIAASEHKYKLIICQTRYLPEKEMEYLQLLSTKQVDGIILCSLENQWEDVEPYLQHGPIVLCNEYIEEANVPTVKFDHAQGAYIAAKHVLEQGYRNLIFCRGNETKVVSQQRKMGFLRAITEKSRQVEAIDFLENAFSWEDGKRIFHEVLKDKKNPTAILAGGDEVAAGIISEAKRHDWSIPDDLAVIGFDNQILSQITEPGITTIEQPIDEMARKVVDLMMDKIHTKNYRKKELYEFELELLVKGSTMKDTMLLAEGHHHHHH | not soluble
MSLSTPAVQALSHLVRDVTMKSIVLSAFGTMPIVDERPLPVAGPQEILIRMTHASLNPIDRRIAEGFFKDRFEHRFPLTLGIDGAGVVESIGEQVSDFEVGDSVFGRFLHSYVGNGSFSEYVAISADATLLHTPLGVPPALAAALPTAATTALQAVESLGLPPGSVVLIMGATGGVGTFAVQLARAKGYQVLASASTEAAPWLAQLGVEHVFDRTQNVPERLSTGWPAGINGLIDLVNPAPAFAELVSCIAPGGTALSSIWSATADVAAARGVRAVNLEMLPNREDLRTLARQVLSGSLRVVIDKHISLEAVPAVMSQRQAGGARGKTVIDIAEGHHHHHH | soluble
MSLSTRSRIREERKDPLSALAREYGGSKRNALLKWCQKKTEGYQNIDITNFSSSWNDGLAFCALLHTYLPAHIPYQELNSQDKKRNFTLAFQAAESVGIKSTLDINEMARTERPDWQNVMLYVTAIYKYFETEGHHHHHH | soluble
MSLTALSSVDFCLPEHITPEIFLRDYWQKKPLVIRNGLPEIVGQFEPQDIIELAQNEDVTARLVKTFSDDDWKVFFSPLSEKDFQKLPEKWSVLVQNLEQWSPELGQLWNKFGFIPQWQRDDIMVSYAPKGGSVGKHYDEYDVFLVQGYGHRRWQVGKWCDASTEFKPNQSIRIFDDMGELVIDEVMNPGDILYIPARMAHYGVAEDDCLTFSFGLRYPNLSNLIDGISKGFCHQDPDLNLSEFDLPLRLSQSEQRTGKLADENIQAMKQLLLDKLAHSEAFDTLFKQAVASAVSSRRYELLVSDEMCDPDEVRSILEEDGAFLSQDNNCKLLYTENPLRIYANGEWLDELNIIESEVLKRLSDGESLDWAFLSDLANKTEDPETSMDLLLDSICNWVDDGWALIEEGGSHHHHHH | soluble
